The text below walks through data of publication PMC6911004, “Fragment-based screening identifies molecules targeting the substrate-binding ankyrin repeat domains of tankyrase” (Scientific Reports, 2019).

In general, IC50 refers to the concentration needed to halve the response being measured. Lower therefore signals inhibition by little substance.

The target in the assay is T1, TNKS2 ARC4 (Homo sapiens, UniProt Q9H2K2).
T1 construct: The cell was filled with TNKS2 ARC4 (488–649); His6-GST; made in house; host or cells: E. coli
T1 sequence (Q9H2K2 488-649): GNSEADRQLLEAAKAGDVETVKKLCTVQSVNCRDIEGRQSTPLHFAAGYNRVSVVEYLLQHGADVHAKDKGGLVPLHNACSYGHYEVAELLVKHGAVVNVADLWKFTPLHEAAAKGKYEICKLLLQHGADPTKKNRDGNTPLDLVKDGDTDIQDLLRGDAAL
Put plainly: Fluorescence polarisation (FP) competition assay with Cy5-labelled TBM peptide probe. It counts as binding. The following applies: 5 nM Cy5-RSPPDGQS probe, 5 µM TNKS2 ARC4. The source says: Given the anticipated impairment of cell permeability by the N-terminal TBM arginine, we investigated whether the guanidine group could be substituted. To prioritise synthesis efforts, we followed an in-silico docking approach, exploring the importance of the positive charge and hydrogen bonding interactions, linker lengths/flexibility and side chain geometry (see Supplementary Materials and Methods for details). From commercially available side chain alternatives, we identified five potential candidates for R replacements: 1H-imidazole-5-pentanoic acid, 1H-imidazole-1-pentanoic acid, 7-aminoheptanoic acid, D-arginine and L-citrulline (Supplementary Fig. 1). We next synthesised 3BP2 TBM octapeptides, incorporating the five arginine substituents at position 1, followed by fluorescence polarisation (FP) assays to assess competition of the peptides with a Cy5-labelled TBM peptide probe (Supplementary Fig. 1). We used a 16-mer TBM peptide (LPHLQRSPPDGQSFRSW, W introduced to measure A280) derived from the model substrate 3BP2, a signalling adapter protein[4], as a positive control for a competitor, and a corresponding non-binding TBM peptide bearing a glycine-to-arginine substitution at position 6[4] as a negative control. […]
Fluorescence polarisation assay
Unlabelled arginine substituent peptides were titrated up to 1 mM in the presence of 5 nM of a labelled peptide probe (Cy5-RSPPDGQS, JPT Peptide Technologies) and 5 µM TNKS2 ARC4. 3BP2 16-mer peptide was used as a positive control, and the same peptide with the glycine at position 6 mutated to arginine (G6R) was used as a negative control. Plus F ProxiPlates (PerkinElmer) were used with a 2103 Envision Multilabel plate reader (PerkinElmer), fitted with 620 nm (excitation) and 688 nm (emission) filters. Filter bandwidths were 10 nm. A Nanodrop 2000 was used for measuring protein and probe concentrations by UV absorption. TNKS2 ARC4 protein was thawed from -80 ° C, and centrifuged at 13,000 […]
Two independent experiments were performed in technical duplicate. A 2´ stock solution containing TNKS2 ARC4 protein (10 µM) and fluorescently tagged probe (10 nM) in assay buffer (25 mM HEPES-NaOH pH 7.5, 100 mM NaCl, 1 mM TCEP, 0.01% CHAPS) was prepared. A 2-fold dilution series of untagged peptide in assay buffer was made (0 – 2 mM).
Protein and peptide stock solutions were mixed 1:1. Blank samples contained assay buffer only. The plate was sealed, centrifuged for 1 min at 1000 ´ g, and then incubated in the dark for 30 min before reading. Readings were taken with 50 flashes per well, and measured in millipolarisation (mP) units. Data were exported to Microsoft Excel, and analysed in GraphPad Prism 6.0. The means of technical duplicate values were calculated for both experiments, and FP values were plotted against unlabelled peptide concentration. Curves were normalised using the overall mean maximum and minimum FP values of the control 3BP2 TBM peptide. Curves were fitted using a non-linear regression, log(inhibitor) vs. response – variable slope (four parameters) model.
Multiple sequence alignments and amino acid identity mapping
Sequences of tankyrase ARCs were aligned using ClustalX (version 2.0) 4. […]
Supplementary Figure 1. Binding of TBM peptides containing arginine substituents to TNKS2 ARC4, measured in a fluorescence polarisation (FP) competition assay. Data points are means of technical duplicates from two independent experiments. […]
For orientation: Polarisation of emitted light reports the rotation of a fluorescent probe.

Sequence “LPHLQRSPPDGQSFRSW [3BP2 16-mer peptide, 16-mer TBM peptide derived from 3BP2, W added for A280, N-terminus acetylated, C-terminus amide-capped; positive control, reference compound]” gave an IC50 of 22 µM.
